Each block holds one binder with its values, some of them ahead of it.
Key:
[1] = target: phage expressed hFn14 mutant H60A (human, UniProt Q9NP84 28-77); assay: phage ELISA (Method 2): antibody coated on the plate, 10-fold dilutions of phage displaying hFn14 H60A; biotin anti-M13 antibody, streptavidin-HRP, TMB, OD 450 nm; x axis = dilution of phage
Procedure: (§1) ELISAs showing the reactivity of mutant H60A and H60K hFn14 phage constructs with the anti-Fn14 monoclonal antibodies CRCBT-06-001, CRCBT-06-002, CRCBT-06-004 compared to ITEM-1 and ITEM-4. ITEM-2 was assessed on H60K. Binding was detected using Biotin-conjugated anti-M13-phage monoclonal antibody followed by HRP-conjugated Streptavidin and TMB substrate. Optical density at 450 nm was quantified using a Spectramax spectrophotometer. Error bars for each dilution represent the standard deviation of duplicate assays. X axis=dilution of phage. Methods according to Epitope mapping using phage expressed Fn14—Method 2.
(§2) The wells of Maxisorp immunoplates (Nunc) were coated overnight at 4° C. with the target monoclonal antibodies or recombinant Tweak-Fc at a concentration of 1.5 μg/ml in PBS. mAb 5G8 was used as a negative control for ELISA plates coated with tested antibodies. […] 10-fold serial dilutions of phage were made using PBS solution and phage dilutions were added to the coated, blocked ELISA plates for 1 hour, shaking at room temperature. Phage was subsequently removed from the wells and the ELISA plates were washed three times with PBS/0.05% Tween 20.
Method A: HRP-conjugated anti-M13-phage antibody (GE Healthcare) at a 1/5000 dilution in PBS was then added to the wells of the ELISA plates for 1 hour, shaking at room temperature. […]

[2] = target: phage expressed hFn14 mutant R58A (human, UniProt Q9NP84 28-77); assay: phage ELISA (Method 2), antibody on plate, phage dilution 1/X on the x axis
Description: as §1, with “FIG. 26 is a graphical representation” for “ELISAs”, “showing results of an ELISA testing” for “showing”, “mutant” for “mutant H60A and H60K”, “construct comprising a R58A mutation” for “constructs”, “ITEM-4.” for “ITEM-4. ITEM-2 was assessed on H60K.”, “2” for “2.”
as §2, with “Phage was subsequently removed from the wells and the ELISA plates were washed three times with PBS/0.05% Tween 20.” left out
Method A: HRP-conjugated anti-M13-phage antibody (GE Healthcare) at a 1/5000 dilution in PBS was then added to the wells of the ELISA plates for 1 hour, shaking at room temperature. […] Optical density at 450 nm was quantified using a Spectramax absorbance spectrophotometer.

[3] = target: phage-displayed hFn14 mutant L77M (human, UniProt Q9NP84 28-76); assay: phage ELISA, antibody on plate
[4] = target: phage-displayed hFn14 mutant A34S (human, UniProt Q9NP84 28-77); assay: phage ELISA, antibody on plate
[5] = target: phage-displayed hFn14 mutant R56P (human, UniProt Q9NP84 28-77); assay: phage ELISA, antibody on plate
[6] = target: phage-displayed hFn14 mutant R38S (human, UniProt Q9NP84 28-77); assay: phage ELISA, antibody on plate
[7] = target: T1, Fn14 gene fragment RW129 on phage (human, UniProt Q9NP84 32-74); assay: phage ELISA, Fn14 gene fragments on phage, CRCBT-06-001 wells versus blank wells
T1 construct: not shown: M13 pIII coat protein (gene fragment library in pHENH6)

[8] = target: T2, Fn14 gene fragment RW95 on phage (human, UniProt Q9NP84 37-90); assay: as above
T2 construct: not shown: M13 pIII coat protein (gene fragment library in pHENH6)
T2 sequence: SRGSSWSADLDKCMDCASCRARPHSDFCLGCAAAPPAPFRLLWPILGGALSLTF

[9] = target: T3, Fn14 gene fragment RW120 on phage (human, UniProt Q9NP84 31-74); assay: as above
T3 construct: not shown: M13 pIII coat protein (gene fragment library in pHENH6)

[10] = target: T4, Fn14 gene fragment RW131 on phage (human, UniProt Q9NP84 23-69); assay: as above
T4 construct: not shown: M13 pIII coat protein (gene fragment library in pHENH6)
T4 chain: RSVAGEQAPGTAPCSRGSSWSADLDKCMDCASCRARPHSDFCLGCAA

[11] = target: T5, Fn14 gene fragment RW125 on phage (human, UniProt Q9NP84 31-74); assay: as above
T5 construct: not shown: M13 pIII coat protein (gene fragment library in pHENH6)

[12] = target: T6, Fn14 gene fragment RW114 on phage (human, UniProt Q9NP84 31-70); assay: as above
T6 construct: not shown: M13 pIII coat protein (gene fragment library in pHENH6)
T6 chain: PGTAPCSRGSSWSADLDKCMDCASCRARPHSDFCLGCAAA

Sequence of phage expressed hFn14 mutant H60A (Q9NP84 28-77 H60A): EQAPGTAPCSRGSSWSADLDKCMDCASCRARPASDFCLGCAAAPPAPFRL
Sequence of phage-displayed hFn14 mutant A34S (Q9NP84 28-77 A34S): as the sequence (Q9NP84 28-77 H60A) above, with A7S, A33H counted along it
Sequence of phage-displayed hFn14 mutant R38S (Q9NP84 28-77 R38S): as the sequence (Q9NP84 28-77 H60A) above, with R11S, A33H counted along it
T1 sequence (Q9NP84 32-74): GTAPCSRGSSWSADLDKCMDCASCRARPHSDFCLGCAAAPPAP
Sequence of phage-displayed hFn14 mutant R56P (Q9NP84 28-77 R56P): as the sequence (Q9NP84 28-77 H60A) above, with R29P, A33H counted along it
Sequence of phage-displayed hFn14 mutant L77M (Q9NP84 28-77 L77M): as the sequence (Q9NP84 28-77 H60A) above, with A33H, L50M counted along it

binding result [1]: binds
binding result [2]: binds
binding result [3]: binds
binding result [4]: binds
binding result [5]: binds
binding result [6]: binds
B1: CRCBT-06-002 (antibody, IgG1, V domains shown)
VH: EVKLQQSGGGLVQPGGSMKLSCVASGFTFSYYWMNWVRQSPEQGLEWIAEIRLQSNDYPTHYAESVKGRFTISRDDSKNSVYLQMNNLRPEDTGIYYCACRYADYFDHWGQGTTLTVSS
VL: DTVLTQSPASLVVSLGQRATISCRASQSVSTSDYSYIHWYQQKPGQPPKFLIKYASNRDSGVPARFSGSGSGTDFTLNIHPVEEDDTAIYYCQHSWEIPPTFGAGTKLELQR

binding result [1]: binds
binding result [2]: binds
binding result [7]: binds
binding result [8]: no binding
binding result [9]: binds
binding result [10]: binds
binding result [11]: binds
binding result [12]: binds
B2: CRCBT-06-001 (antibody, IgG2b, V domains shown)
VH: QVQLQQSGGGLVQPGGSMKLSCIASGFTFSSYWMSWVRQSPEKGLEWVAEIRSKSDNYATHYAESVKGKFTISRDDSKSRFFLQMNNLRAEDTGIYYCSSTYADYFHYWGQGTDLTVSS
VL: DIVMTQTPASLAVSLGQRATISCRASQSVSTSTYSYMHWYQQKPGQPPKLLIKYASSLESGVPARFSGSGSGTDFTLNIHPVEEDDTATYYCQHSWEIPYTFGGGTKLEIKR

Reference: patent US20200239586A1 (LA TROBE UNIVERSITY, published 2020)
